From paper PMC5915679 (Molecular cell, 2017) come the findings set out here.

No end group written: not given here. FAM = fluorescein amidite

In experiment [1] the target is T1, human Argonaute-1 (human, UniProt Q9UL18 1-857). The experiment is described as follows: fluorescence polarisation.
In experiment [2] the target is T1, human Argonaute-1. In words: ITC.

With {FAM}-TVDNGTSAWGKPIDSGPSWGEP (peptide, UniProt Q8NDV7-2 820-841, looked up) [N-terminal fluorescein amidite (FAM) labeled hGW182 hook fragment], the binding result in the experiment with human Argonaute-1 [1] was “binds”.
In the experiment with human Argonaute-1 [2], TVDNGTSAWGKPIDSGPSWGEP (peptide, UniProt Q8NDV7-2 820-841, looked up) [hGW182 (TNRC6A) hook motif] yielded a Kd of 383 nM.
